Patent US20260049138A1 (Chugai, published 2026)
Changes are numbered by the printed parent chain. Names may count otherwise.

B1: GLS3000 T31P one-arm antibody (antibody, human IgG1, kappa, L234A L235A, N297A, name in Kabat numbering)
heavy: QVQLVESGGGVVQPGRSLRLSCAASGFTFSNAWMHWVRQAPGKGLEWVAQIKAKSNNYATYYAESVKGRFTISRDDSKNSLYLQMNSLKTEDTAVYYCRYVHYGAYYGVDAWGQGTTVTVSSASTKGPSVFPLAPSSKSTSGGTAALGCLVKDYFPEPVTVSWNSGALTSGVHTFPAVLQSSGLYSLSSVVTVPSSSLGTQTYICNVNHKPSNTKVDKKVEPKSCDKTHTCPPCPAPEAAGGPSVFLFPPKPKDTLMISRTPEVTCVVVDVSHEDPEVKFNWYVDGVEVHNAKTKPREEQYASTYRVVSVLTVLHQDWLNGKEYKCKVSNKALPAPIEKTISKAKGQPREPQVYTLPPSRCELTKNQVSLSCAVKGFYPSDIAVEWESNGQPENNYKTTPPVLDSDGSFFLVSKLTVDKSRWQQGNVFSCSVMHEALHNHYTQKSLSLSPDYKDDDDK
chain: EPKSSDKTHTCPPCPAPELLGGPSVFLFPPKPKDTLMISRTPEVTCVVVDVSHEDPEVKFNWYVDGVEVHNAKTKPREEQYNSTYRVVSVLTVLHQDWLNGKEYKCKVSNKALPAPIEKTISKAKGQPREPQVCTLPPSRDELTKNQVSLWCLVKGFYPSDIAVEWESNGQPENNYKTTPPVLDSDGSFFLYSKLTVDKSRWQQGNVFSCSVMHEALHNRYTQKSLSLSP
light: DIVMTQSPLSLPVTPGEPASISCRSSQSLVHSNRNPYLHWYQQKPGQAPRLLIYKVSNRFSGVPDRFSGSGSGTDFTLKISRVEAEDVGVYYCGQGTQVPYTFGQGTKLEIKRTVAAPSVFIFPPSDEQLKSGTASVVCLLNNFYPREAKVQWKVDNALQSGNSQESVTEQDSKDSTYSLSSTLTLSKADYEKHKVYACEVTHQGLSSPVTKSFNRGEC
B2: GLS3000 T92I one-arm antibody (antibody, human IgG1, kappa, L234A L235A, N297A, name in Kabat numbering)
heavy: B1 heavy
chain: B1 chain
light: B1 light with P36T, T97I
B3: GLS3000 T92A one-arm antibody (antibody, human IgG1, kappa, L234A L235A, N297A, name in Kabat numbering)
heavy: B1 heavy
chain: B1 chain
light: B1 light with P36T, T97A
B4: GLS3000 T92P one-arm antibody (antibody, human IgG1, kappa, L234A L235A, N297A, name in Kabat numbering)
heavy: B1 heavy
chain: B1 chain
light: B1 light with P36T, T97P
B5: GLS3000 T92S one-arm antibody (antibody, human IgG1, kappa, L234A L235A, N297A, name in Kabat numbering)
heavy: B1 heavy
chain: B1 chain
light: B1 light with P36T, T97S
B6: GLS3000 T92Y one-arm antibody (antibody, human IgG1, kappa, L234A L235A, N297A, name in Kabat numbering)
heavy: B1 heavy
chain: B1 chain
light: B1 light with P36T, T97Y
B7: GLS3000 T92L one-arm antibody (antibody, human IgG1, kappa, L234A L235A, N297A, name in Kabat numbering)
heavy: B1 heavy
chain: B1 chain
light: B1 light with P36T, T97L
B8: GLS3000 T92D one-arm antibody (antibody, human IgG1, kappa, L234A L235A, N297A, name in Kabat numbering)
heavy: B1 heavy
chain: B1 chain
light: B1 light with P36T, T97D
B9: GLS3000 T92E one-arm antibody (antibody, human IgG1, kappa, L234A L235A, N297A, name in Kabat numbering)
heavy: B1 heavy
chain: B1 chain
light: B1 light with P36T, T97E
B10: GLS3000 T97P one-arm antibody (antibody, human IgG1, kappa, L234A L235A, N297A, name in Kabat numbering)
heavy: B1 heavy
chain: B1 chain
light: B1 light with P36T, T102P

These binders were tested against T1, CD3ε homodimer protein (human, UniProt P07766 23-126, limits assumed) (assay: SPR Biacore T200, CD3ε homodimer on chip;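 note: Light-chain single-residue variant antibodies injected over amine-coupled CD3ε homodimer on a CM4 chip at 25 °C, bound amount divided by that of the GLS3000-containing antibody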).
T1 construct: also called CD3 (CD3ε)
T1 sequence (P07766 23-126 limits assumed): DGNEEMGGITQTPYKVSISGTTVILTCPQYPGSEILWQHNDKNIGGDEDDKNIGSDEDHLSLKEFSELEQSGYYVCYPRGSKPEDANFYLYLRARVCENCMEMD

Row | ratio of amount bound vs unaltered GLS3000 | Binder
1 | 0.31 | B1
2 | 0.34 | B2
3 | 0.63 | B3
4 | 0.26 | B4
5 | 0.96 | B5
6 | 0.33 | B6
7 | 0.42 | B7
8 | 0.18 | B8
9 | 0.17 | B9
10 | 0.31 | B10
